Assay [1] concerns the target T1, HPV6 VLP (human papillomavirus type 6, UniProt P69899 1-500).
T1 sequence: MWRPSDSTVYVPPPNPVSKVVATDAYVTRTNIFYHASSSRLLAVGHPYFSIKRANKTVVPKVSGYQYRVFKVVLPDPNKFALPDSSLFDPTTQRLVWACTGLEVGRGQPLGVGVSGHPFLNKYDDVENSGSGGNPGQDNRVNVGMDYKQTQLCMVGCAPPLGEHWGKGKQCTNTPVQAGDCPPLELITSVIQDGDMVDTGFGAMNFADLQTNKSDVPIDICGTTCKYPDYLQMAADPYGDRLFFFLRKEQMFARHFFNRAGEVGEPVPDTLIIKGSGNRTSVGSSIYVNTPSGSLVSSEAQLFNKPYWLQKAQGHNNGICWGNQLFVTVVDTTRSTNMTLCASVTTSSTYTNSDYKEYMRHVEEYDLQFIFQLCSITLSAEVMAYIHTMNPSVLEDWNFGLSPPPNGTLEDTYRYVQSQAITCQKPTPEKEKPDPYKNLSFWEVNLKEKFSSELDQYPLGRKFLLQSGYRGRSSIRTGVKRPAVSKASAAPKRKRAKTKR
Put plainly: SPR (BIACORE 3000). A general note: Surface plasmon resonance follows binding to a sensor surface in real time, without labels.

Assay [2] concerns the target T2, HPV11 VLP (human papillomavirus type 11, UniProt P04012 1-501).
T2 sequence: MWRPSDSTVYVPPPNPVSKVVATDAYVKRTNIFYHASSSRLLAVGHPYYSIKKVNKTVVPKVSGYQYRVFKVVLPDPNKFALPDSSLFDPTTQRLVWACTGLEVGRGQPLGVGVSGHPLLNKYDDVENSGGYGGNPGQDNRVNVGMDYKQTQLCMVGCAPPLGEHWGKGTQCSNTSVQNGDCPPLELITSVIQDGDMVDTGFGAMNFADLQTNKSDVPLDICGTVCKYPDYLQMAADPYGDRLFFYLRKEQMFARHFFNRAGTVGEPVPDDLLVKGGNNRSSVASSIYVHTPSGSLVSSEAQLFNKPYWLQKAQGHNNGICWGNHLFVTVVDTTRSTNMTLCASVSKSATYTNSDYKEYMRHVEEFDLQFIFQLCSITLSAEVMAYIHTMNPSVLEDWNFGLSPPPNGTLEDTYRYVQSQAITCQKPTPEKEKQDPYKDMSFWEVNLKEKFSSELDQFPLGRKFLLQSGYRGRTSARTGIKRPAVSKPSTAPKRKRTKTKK
The experiment in a line: SPR (BIACORE 3000).

Assay [3] has as its target T3, HPV31 VLP (human papillomavirus type 31, UniProt P17388 1-504).
T3 sequence: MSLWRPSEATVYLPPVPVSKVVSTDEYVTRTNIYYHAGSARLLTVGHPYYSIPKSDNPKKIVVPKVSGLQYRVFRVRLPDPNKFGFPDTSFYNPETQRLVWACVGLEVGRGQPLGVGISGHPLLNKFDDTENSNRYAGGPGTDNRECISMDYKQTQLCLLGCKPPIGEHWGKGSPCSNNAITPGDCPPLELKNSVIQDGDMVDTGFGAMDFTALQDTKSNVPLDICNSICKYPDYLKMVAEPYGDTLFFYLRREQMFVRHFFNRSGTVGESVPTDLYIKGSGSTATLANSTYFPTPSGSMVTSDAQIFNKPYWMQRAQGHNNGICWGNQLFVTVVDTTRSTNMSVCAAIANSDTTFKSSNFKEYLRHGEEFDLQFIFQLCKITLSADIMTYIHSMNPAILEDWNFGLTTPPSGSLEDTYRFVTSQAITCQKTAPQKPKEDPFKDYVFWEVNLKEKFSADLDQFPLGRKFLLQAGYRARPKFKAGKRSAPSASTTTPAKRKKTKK
Put plainly: SPR (BIACORE 3000).

For assay [4], the target named is T4, HPV45 VLP (human papillomavirus type 45, UniProt P36741 27-539).
T4 sequence: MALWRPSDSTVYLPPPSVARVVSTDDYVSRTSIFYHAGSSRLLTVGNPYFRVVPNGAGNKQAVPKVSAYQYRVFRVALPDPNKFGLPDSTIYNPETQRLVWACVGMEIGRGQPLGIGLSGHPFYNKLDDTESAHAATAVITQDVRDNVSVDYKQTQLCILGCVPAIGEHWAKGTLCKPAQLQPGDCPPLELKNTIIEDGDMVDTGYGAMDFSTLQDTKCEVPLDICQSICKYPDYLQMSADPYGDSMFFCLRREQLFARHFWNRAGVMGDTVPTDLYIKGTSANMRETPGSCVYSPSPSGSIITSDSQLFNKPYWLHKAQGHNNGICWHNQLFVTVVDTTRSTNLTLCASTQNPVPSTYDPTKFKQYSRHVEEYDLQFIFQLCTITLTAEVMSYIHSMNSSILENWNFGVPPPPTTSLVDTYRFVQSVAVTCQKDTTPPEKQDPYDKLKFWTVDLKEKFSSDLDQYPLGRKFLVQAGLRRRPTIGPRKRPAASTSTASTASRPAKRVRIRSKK
The experiment in a line: SPR (BIACORE 3000).

The target of assay [5] is T5, HPV-16 L1 VLP (human papillomavirus type 16, UniProt P03101 1-505).
T5 construct: also called HPV16VLP
T5 sequence: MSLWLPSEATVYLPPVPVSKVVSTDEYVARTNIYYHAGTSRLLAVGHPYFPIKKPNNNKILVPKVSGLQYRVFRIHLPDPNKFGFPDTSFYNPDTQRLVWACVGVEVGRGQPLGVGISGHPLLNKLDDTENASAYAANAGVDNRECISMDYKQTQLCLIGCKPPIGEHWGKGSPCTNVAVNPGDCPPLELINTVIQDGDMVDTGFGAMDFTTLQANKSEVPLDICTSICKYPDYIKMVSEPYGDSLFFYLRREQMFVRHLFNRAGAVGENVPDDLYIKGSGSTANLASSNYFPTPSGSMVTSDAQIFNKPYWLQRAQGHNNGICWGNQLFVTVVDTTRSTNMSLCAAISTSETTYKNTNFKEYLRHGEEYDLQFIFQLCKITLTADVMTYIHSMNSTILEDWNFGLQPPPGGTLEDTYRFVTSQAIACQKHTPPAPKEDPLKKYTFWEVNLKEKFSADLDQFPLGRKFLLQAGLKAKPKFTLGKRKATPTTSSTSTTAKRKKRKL
The experiment in a line: indirect ELISA on coated VLP. A general note: An ELISA detects its analyte on a solid surface through an enzyme-linked reagent.

Assay [6] concerns the target T6, HPV-18 L1 VLP (human papillomavirus type 18, UniProt P06794 62-568).
T6 construct: also called HPV18VLP
T6 sequence: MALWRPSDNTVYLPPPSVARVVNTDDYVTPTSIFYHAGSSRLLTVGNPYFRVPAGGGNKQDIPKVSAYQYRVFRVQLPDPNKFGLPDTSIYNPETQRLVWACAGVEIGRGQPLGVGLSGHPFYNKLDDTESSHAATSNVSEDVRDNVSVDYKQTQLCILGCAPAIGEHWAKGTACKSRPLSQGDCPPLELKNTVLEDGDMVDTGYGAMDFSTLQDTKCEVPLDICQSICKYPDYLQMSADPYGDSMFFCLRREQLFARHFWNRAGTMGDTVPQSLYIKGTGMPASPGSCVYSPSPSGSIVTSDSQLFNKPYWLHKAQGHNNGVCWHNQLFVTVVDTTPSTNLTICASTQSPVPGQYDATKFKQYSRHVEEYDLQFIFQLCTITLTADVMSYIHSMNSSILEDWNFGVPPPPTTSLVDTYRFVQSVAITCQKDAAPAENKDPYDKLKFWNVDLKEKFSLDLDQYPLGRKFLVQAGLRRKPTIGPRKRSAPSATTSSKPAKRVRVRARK
The experiment in a line: indirect ELISA on coated VLP.

B1: 单克隆抗体2F7 (杂交瘤细胞株2F7, CGMCC No.11295) (antibody, V domains shown)
VH: VQLQQSGPGLVQPSQSLSITCTVSGFSLTSYGVHWVRQSPGKGLEWLGVIWSGGSTDYNAAFISRLSISKDNSKSQVFFKMNSLQANDTAIYYCARRDGNSRYAMDYWGQGTTVTVSS
VL: DIQLTQSPSSMSASLGDRITITCQATQDIVKNLNWYQQKPGKPPSFLIYYATELAEGVPSRFSGSGSGSDYSLTISNLESEDFADYYCLQFYEFPLTFGAGTKLEI
notes: also called 克隆2F7
As for B1, the binding result is given as “no binding (tested: 20nmol/L)” in assay [1]; “no binding (tested: 20nmol/L)” in assay [2]; “no binding (tested: 20nmol/L)” in assay [3]; “no binding (tested: 20nmol/L)” in assay [4]; “no binding (tested: 0.3μg/ml)” in assay [5]; “no binding (tested: 0.3μg/ml)” in assay [6].

These data come from patent CN105713087A (BEIJING HEALTH GUARDS BIOTECHNOLOGY CO LTD, dated 2016).
